# From patent US20090304651A1 (published 2009)
# Key:
# [1] = target: T1, recombinant human IGF-II (Insulin-like Growth Factor II) (human, UniProt P01344 25-91, biotinylated (Biotinyl-IGF-II, GroPep) where immobilised in SPR, site not stated; not biotinylated in ITC and as SPR analyte); assay: SPR, IGF-II immobilised, kinetic fit
# T1 construct: also called IGF2; IGF-2
# Experimental: (§1) Kinetic analysis by Surface Plasmon Resonance (SPR) was conducted on a BIAcore 3000 biosensor (BIAcore, Uppsala, Sweden) at 25° C. in HBS-EP (10 mM HEPES, pH 7.4, 150 mM NaCl, 3 mM EDTA, 0.005% surfactant P20) at a flow rate of 40 μl/min. […] Kinetic experiments consisted of a two minute injection of analyte followed by a 100 s dissociation phase in running buffer, after which the binding surface was regenerated with a 2 minute injection of 2 M MgCl₂. A blank flow cell was used for in-line reference subtraction of changes due to differences in refractive index of running buffer versus sample and a buffer-only injection was used to subtract instrument noise and drift. Injections were performed in duplicate for each concentration and in a randomised order. Kinetic parameters were determined by global fitting of sensorgrams to a two-state (conformational change) binding model using BIAevaluation software version 4.0.1. In all cases the minor component made an insignificant contribution to the overall affinity and as such only the kinetic parameters of the major binding component were used. For each interaction the dissociation affinity constant (KD) was also calculated by fitting of the response of each concentration at equilibrium to a steady-state affinity model using BIAevaluation. In order to investigate the influence of ionic strength, kinetic experiments were conducted in HBS-EP running buffers containing the desired NaCl concentration. In each case, analyte samples were made up in the appropriate running buffer prior to injection.
# [2] = target: T1, recombinant human IGF-II (Insulin-like …); assay: SPR, IGF-II immobilised, steady state
# Experimental: as §1, with “In order to investigate the influence of ionic strength, kinetic experiments were conducted in HBS-EP running buffers containing the desired NaCl concentration. In each case, analyte samples were made up in the appropriate running buffer prior to injection.” left out
# [3] = target: T1, recombinant human IGF-II (Insulin-like …); assay: SPR, IGF-II immobilised, bivalent analyte model, ka1
# Experimental: (§2) Kinetic experiments consisted of a two minute injection of analyte followed by a 100 s dissociation phase in running buffer, after which the binding surface was regenerated with a 2 minute injection of 2 M MgCl₂. A blank flow cell was used for in-line reference subtraction of changes due to differences in refractive index of running buffer versus sample and a buffer-only injection was used to subtract instrument noise and drift. Injections were performed in duplicate for each concentration and in a randomised order. Kinetic parameters were determined by global fitting of sensorgrams to a two-state (conformational change) binding model using BIAevaluation software version 4.0.1. In all cases the minor component made an insignificant contribution to the overall affinity and as such only the kinetic parameters of the major binding component were used. For each interaction the dissociation affinity constant (KD) was also calculated by fitting of the response of each concentration at equilibrium to a steady-state affinity model using BIAevaluation. […]
# (§3) The affinity of versions of Fc-tagged domain 11 fusion proteins, and domain 11 constructs, for IGF-II were compared using surface plasmon resonance (BIAcore 3000). […] The Fc-tagged domain 11 kinetic data performed in triplicate generated sensorgrams that were analyzed using a bivalent analyte model.
# [4] = target: T1, recombinant human IGF-II (Insulin-like …); assay: SPR, IGF-II immobilised, bivalent analyte model
# Experimental: as §2, §3
# [5] = target: T1, recombinant human IGF-II (Insulin-like …); assay: SPR, IGF-II immobilised, bivalent analyte model, kd1
# Experimental: as §2, §3
# [6] = target: T2, recombinant human IGF-I (Insulin-like Growth Factor I) (human, UniProt P05019 49-118, biotinylated (Biotinyl-IGF-I, GroPep), site not stated); assay: SPR, biotinylated IGF-I immobilised
# T2 construct: also called IGF1; Biotinyl-IGF-I
# T2 sequence (P05019 49-118 limits assumed): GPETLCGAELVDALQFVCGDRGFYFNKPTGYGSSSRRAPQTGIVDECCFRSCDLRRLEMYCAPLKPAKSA
# Experimental: (§4) Kinetic experiments consisted of a two minute injection of analyte followed by a 100 s dissociation phase in running buffer, after which the binding surface was regenerated with a 2 minute injection of 2 M MgCl₂. A blank flow cell was used for in-line reference subtraction of changes due to differences in refractive index of running buffer versus sample and a buffer-only injection was used to subtract instrument noise and drift. Injections were performed in duplicate for each concentration and in a randomised order. Kinetic parameters were determined by global fitting of sensorgrams to a two-state (conformational change) binding model using BIAevaluation software version 4.0.1. In all cases the minor component made an insignificant contribution to the overall affinity and as such only the kinetic parameters of the major binding component were used. For each interaction the dissociation affinity constant (KD) was also calculated by fitting of the response of each concentration at equilibrium to a steady-state affinity model using BIAevaluation. In order to investigate the influence of ionic strength, kinetic experiments were conducted in HBS-EP running buffers containing the desired NaCl concentration. In each case, analyte samples were made up in the appropriate running buffer prior to injection.
# (§5) The affinity of versions of Fc-tagged domain 11 fusion proteins, and domain 11 constructs, for IGF-II were compared using surface plasmon resonance (BIAcore 3000). Attempts were made to immobilize Fc-tagged domain 11 proteins upon a sensor chip surface (CM5 and CM5-proteinA) but we encountered similar problems as described above with immobilised monomeric domain 11. Instead, immobilisation of biotinylated IGF-I and IGF-II on separate flow cells of a streptavidin coated sensor chip (BIAcore) generated reproducible sensorgram profiles when Fc-tagged and untagged domain 11 proteins were passed over the surface as analytes. The Fc-tagged domain 11 kinetic data performed in triplicate generated sensorgrams that were analyzed using a bivalent analyte model.
# [7] = target: T1, recombinant human IGF-II (Insulin-like …); assay: SPR, biotinylated IGF-II immobilised
# Experimental: as §2, §3
# [8] = target: T1, recombinant human IGF-II (Insulin-like …); assay: SPR, IGF-II immobilised
# Experimental: as §4, §5
# T1 sequence (P01344 25-91 limits assumed): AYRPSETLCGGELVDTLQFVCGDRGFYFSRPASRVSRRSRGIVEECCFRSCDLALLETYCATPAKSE
Kd [1] [nM],koff [1] [s⁻¹],kon [1] [M⁻¹ s⁻¹],Kd [2] [nM],kon [3] [M⁻¹ s⁻¹],Kd [4] [nM],koff [5] [s⁻¹],binding result [6],binding result [7],Ru response amplitude relative to 11-Fc at equal concentrations [8] [fold],molar affinity relative to 11-Fc [8] [fold],Binder
–,–,–,–,–,–,–,no binding,no binding,–,–,"Fc-tagged null mutant IGF2R domain 11 (11^I1572A-Fc), human IgG1 Fc at the C-terminus, homodimer from Drosophila D.Mel-2 cells (Fc fusion, N-glycosylated with two 982.9 Da molecules of Man3GlcNAc2, not shown: human IgG1 Fc domain, amplified from IMAGE clone 4851063) NEHDDCQVTNPSTGHLFDLSSLSGRAGFTAAYSEKGLVYMSICGENENCPPGVGACFGQTRASVGKANKRLRYVDQVLQLVYKDGSPCPSKSGLSYKSVISFVCRPEAGPTNRPMLISLDKQTCTLFFSWHTPLACEQAT"
–,–,–,–,2.23e+06,1.79,0.00401,no binding,–,~2,~2,"Fc-tagged enhanced mutant IGF2R domain 11 (11^E1544K-Fc), human IgG1 Fc at the C-terminus, homodimer from Drosophila D.Mel-2 cells (Fc fusion, N-glycosylated with two 982.9 Da molecules of Man3GlcNAc2, not shown: human IgG1 Fc domain, amplified from IMAGE clone 4851063) NEHDDCQVTNPSTGHLFDLSSLSGRAGFTAAYSKKGLVYMSICGENENCPPGVGACFGQTRISVGKANKRLRYVDQVLQLVYKDGSPCPSKSGLSYKSVISFVCRPEAGPTNRPMLISLDKQTCTLFFSWHTPLACEQAT"

# Second part, the binder before the results:
Binder,Kd [1] [nM],koff [1] [s⁻¹],kon [1] [M⁻¹ s⁻¹],Kd [2] [nM],kon [3] [M⁻¹ s⁻¹],Kd [4] [nM],koff [5] [s⁻¹],binding result [6],binding result [7],Ru response amplitude relative to 11-Fc at equal concentrations [8] [fold],molar affinity relative to 11-Fc [8] [fold]
"IGF2R domain 11 expressed in E. coli (pET-15), refolded and purified (receptor, also called purified 11 from E. coli; native domain 11 protein) NEHDDCQVTNPSTGHLFDLSSLSGRAGFTAAYSEKGLVYMSICGENENCPPGVGACFGQTRISVGKANKRLRYVDQVLQLVYKDGSPCPSKSGLSYKSVISFVCRPEAGPTNRPMLISLDKQTCTLFFSWHTPLACEQAT",114,0.063,553000,114,–,–,–,–,–,–,–
"Fc-tagged wild-type IGF2R domain 11 (11-Fc), human IgG1 Fc at the C-terminus, homodimer from Drosophila D.Mel-2 cells (Fc fusion, N-glycosylated with two 982.9 Da molecules of Man3GlcNAc2, also called 11^Wild type-Fc; 11^Wild type -Fc; not shown: human IgG1 Fc domain, amplified from IMAGE clone 4851063) NEHDDCQVTNPSTGHLFDLSSLSGRAGFTAAYSEKGLVYMSICGENENCPPGVGACFGQTRISVGKANKRLRYVDQVLQLVYKDGSPCPSKSGLSYKSVISFVCRPEAGPTNRPMLISLDKQTCTLFFSWHTPLACEQAT",–,–,–,–,1.36e+06,3.26,0.00445,no binding,–,–,–
